Patent US20180031558A1, “BIOMARKERS OF ACUTE LIVER INJURY” (The Regents of the University of Michigan, priority 2014, published 2018)
Entries after “also recorded” stand apart in the source; their conditions may differ. Where two headings read alike, the source gives them in different places.

What was measured:
liver [1] = test: FasL and APAP induced mouse liver injury, histological analysis of liver sections; assay type: in vivo; conditions: mice, intraperitoneal; FasL 0.15 μg/g, 4 h; APAP 700 mg/Kg, 8 h
Protocol: FIG. 4. CPS1 is released into serum during FasL and APAP induced mouse liver injury. Mice were injected with FasL (0.15 μg/g) and APAP (700 mg/Kg) and sacrificed after 4 h and 8 h, respectively. Liver damage was analyzed serologically, biochemically and histologically. Panel A: Immunoblots of serum CPS1, HMGB1 and caspase activation using total liver lysate. Coomassie stain of serum IgG heavy chain (just above the 50 kDa prominent species) and IgG light chain (25 kDa), and an actin blot of total liver lysates are included as loading controls. Serum ALT of the individual mice is also indicated (bottom of panel). Panel B: Hematoxylin and eosin stained liver sections. […] Scale bar=40 μm.
(§1) Primary hepatocytes from mice were isolated (Snider et al. J Cell Biol 195: 217-29, 2011.; herein incorporated by reference in its entirety). […] Serum ALT levels were determined using a Vetscan-vs2 instrument (ABAXIS) using the comprehensive diagnostic profile cartridge or using Unit for Laboratory Animal Medicine (ULAM) core facility at University of Michigan. […]
Mice were injected with FasL in saline (to induce apoptosis), or with APAP in DMSO (to induced necrosis) or were injected with vehicle (saline or DMSO). The serum and liver histology were then analyzed. For both the APAP and FasL conditions, CPS1 was more easily detected in the serum of the mice and parallels the elevation of ALT (FIG. 4A). […]

[2] = test system: primary mouse hepatocytes; test: Viable cell count by trypan blue staining of treated primary hepatocytes; assay type: cell-based; conditions: FasL 0.5 μg/ml, APAP 1 mM
Protocol: FIG. 2. Primary hepatocytes release CPS1 in response to difference types of liver injury. A: Primary mouse hepatocytes were cultured in the presence of hypoosmotic media (200 mOsm/L), FasL (0.5 μg/ml), and acetaminophen (APAP, 1 mM). The concentrated cell culture media and total cell lysates were used for immunoblotting with antibodies to the indicated proteins. B: After each treatment as in panel A, the viable cell count was determined using trypan blue staining after trypsin treatment. Each bar represents the mean of 10 to 15 fields. […] C: Mouse hepatocytes were challenged with FasL, APAP and hypoosmosis as in Panel A. Cells were fixed and immunostained with CPS1 (red) and counter stained with DAPI (blue). Arrows highlight areas with less dense CPS1 staining. Scale bar=20 μm.
as §1, with “entirety). The liver was perfused with 3-5 ml of perfusion media through the portal vein with a flow rate of 3 ml/min followed by perfusion with 15-20 ml of digestion media containing 150 units/ml of collagenase-II (Worthington) at the same flow rate.” for “entirety).”

liver [3] = conditions: mice fed 0.1% DDC for 10 days, 15 days, 6 weeks, 3 months
Protocol: Serum CPS1 in chronic liver injury. Panel A: The presence of serum CPS1 and HMGB1 was tested in animals exposed to the hepatotoxin DDC for 10 days, 15 days, 6 weeks and 3 months. Corresponding serum ALT values are also included. […] Each lane corresponds to serum from separate mice. Two mice for each time point were shown except the control. Panel B: Hematoxylin and eosin staining of livers from control and DDC-administered mice. Scale bar=40 μm. Panels C and D: Human sera from patients with chronic hepatitis B virus infection (HBV), chronic hepatitis C infection (HCV), or controls were analyzed for the presence of CPS1 and HMGB1. Serum from APAP and from control donors with normal ALT were used as positive and negative controls, respectively. […] Each lane represents separate patients or donors.
To test the CPS1 release during chronic mouse liver injury, mice were fed 0.1% DDC (a porphyrinogenic hepatotoxin) for 10-days, 15-days, 6-weeks and 3-months and serum CPS1 levels were analyzed.

[4] = rats; cited from earlier work
[5] = Half-life of CPS1 in mouse serum after FasL injection (western blot densitometry); assay type: in vivo
Protocol: FIG. 6. CPS1 has a short half-life in mouse serum. In order to determine the half-life of CPS1 in mouse serum, mice (five total) were injected with FasL (0.075 μg/g) and blood was collected from the same animal via tail vain at the indicated time points. Sera were used to determine serum ALT, or mixed with 2× SDS sample buffer to measure circulating serum CPS1 by western blot analysis. CPS1 pixel intensity (CPS1 OD) at each time point was determined by densitometry scanning. Panels A-D: Immunoblots of time-dependent serum CPS1 levels of four individual mice are shown. CPS1 OD and serum ALT values at each time point are indicated. A Coomassie stain of serum is included as loading control. To determine the half-life of serum CPS1, the OD values of 24 h to 32 h of all five mice were used. Assuming an exponential decay, half-life of CPS1 for each time interval was calculated using the equation; Ending amount=Beginning amount/[…]; where n=number of half-lives. […]
as §1

CC(=O)Nc1ccc(O)cc1 [APAP, acetaminophen]
liver histology (hematoxylin and eosin) (liver [1]): necrotic cell death
cell death (viable cell count, trypan blue) [2]: significant cell deaths

CCOC(=O)C1=C(C)NC(C)=C(C(=O)OCC)C1C [DDC]
liver histology (hematoxylin and eosin) (liver [3]): early evidence of cell drop off at days 10 and 15

FasL: Fas ligand, which induces hepatocyte cell death (apoptosis)
liver histology (hematoxylin and eosin) (liver [1]): marked liver hemorrhage; also recorded: severe hemorrhage formation

B1: CPS1: most abundant mitochondrial matrix protein of liver, urea cycle enzyme; serum biomarker of acute liver injury (protein, UniProt P31327 39-1500, looked up)
Carbamoyl-phosphate synthase …: LSVKAQTAHIVLEDGTKMKGYSFGHPSSVAGEVVFNTGLGGYPEAITDPAYKGQILTMANPIIGNGGAPDTTALDELGLSKYLESNGIKVSGLLVLDYSKDYNHWLATKSLGQWLQEEKVPAIYGVDTRMLTKIIRDKGTMLGKIEFEGQPVDFVDPNKQNLIAEVSTKDVKVYGKGNPTKVVAVDCGIKNNVIRLLVKRGAEVHLVPWNHDFTKMEYDGILIAGGPGNPALAEPLIQNVRKILESDRKEPLFGISTGNLITGLAAGAKTYKMSMANRGQNQPVLNITNKQAFITAQNHGYALDNTLPAGWKPLFVNVNDQTNEGIMHESKPFFAVQFHPEVTPGPIDTEYLFDSFFSLIKKGKATTITSVLPKPALVASRVEVSKVLILGSGGLSIGQAGEFDYSGSQAVKAMKEENVKTVLMNPNIASVQTNEVGLKQADTVYFLPITPQFVTEVIKAEQPDGLILGMGGQTALNCGVELFKRGVLKEYGVKVLGTSVESIMATEDRQLFSDKLNEINEKIAPSFAVESIEDALKAADTIGYPVMIRSAYALGGLGSGICPNRETLMDLSTKAFAMTNQILVEKSVTGWKEIEYEVVRDADDNCVTVCNMENVDAMGVHTGDSVVVAPAQTLSNAEFQMLRRTSINVVRHLGIVGECNIQFALHPTSMEYCIIEVNARLSRSSALASKATGYPLAFIAAKIALGIPLPEIKNVVSGKTSACFEPSLDYMVTKIPRWDLDRFHGTSSRIGSSMKSVGEVMAIGRTFEESFQKALRMCHPSIEGFTPRLPMNKEWPSNLDLRKELSEPSSTRIYAIAKAIDDNMSLDEIEKLTYIDKWFLYKMRDILNMEKTLKGLNSESMTEETLKRAKEIGFSDKQISKCLGLTEAQTRELRLKKNIHPWVKQIDTLAAEYPSVTNYLYVTYNGQEHDVNFDDHGMMVLGCGPYHIGSSVEFDWCAVSSIRTLRQLGKKTVVVNCNPETVSTDFDECDKLYFEELSLERILDIYHQEACGGCIISVGGQIPNNLAVPLYKNGVKIMGTSPLQIDRAEDRSIFSAVLDELKVAQAPWKAVNTLNEALEFAKSVDYPCLLRPSYVLSGSAMNVVFSEDEMKKFLEEATRVSQEHPVVLTKFVEGAREVEMDAVGKDGRVISHAISEHVEDAGVHSGDATLMLPTQTISQGAIEKVKDATRKIAKAFAISGPFNVQFLVKGNDVLVIECNLRASRSFPFVSKTLGVDFIDVATKVMIGENVDEKHLPTLDHPIIPADYVAIKAPMFSWPRLRDADPILRCEMASTGEVACFGEGIHTAFLKAMLSTGFKIPQKGILIGIQQSFRPRFLGVAEQLHNEGFKLFATEATSDWLNANNVPATPVAWPSQEGQNPSLSSIRKLIRDGSIDLVINLPNNNTKFVHDNYVIRRTAVDSGIPLLTNFQVTKLFAEAVQKSRKVDSKSLFHYRQYSAGKAA
half-life of CPS1 [4]: 1.12 h
average half-life of CPS1 in mouse serum ([5]; mice injected with FasL 0.075 μg/g, OD values of 24 h to 32 h of five mice, mean±standard error of mean): 2.1 ± 0.15 h
half-life of CPS1 in mouse serum ([5]; mice, FasL treatment 0.075 μg/g, combination of turnover and ongoing release): ~2.1 h
